For the assay, the target named is T1, NifU (A. vinelandii NifU expressed in yeast strain SB33Y as SU9-NifU) (Azotobacter vinelandii, UniProt P05340 2-312).
T1 sequence: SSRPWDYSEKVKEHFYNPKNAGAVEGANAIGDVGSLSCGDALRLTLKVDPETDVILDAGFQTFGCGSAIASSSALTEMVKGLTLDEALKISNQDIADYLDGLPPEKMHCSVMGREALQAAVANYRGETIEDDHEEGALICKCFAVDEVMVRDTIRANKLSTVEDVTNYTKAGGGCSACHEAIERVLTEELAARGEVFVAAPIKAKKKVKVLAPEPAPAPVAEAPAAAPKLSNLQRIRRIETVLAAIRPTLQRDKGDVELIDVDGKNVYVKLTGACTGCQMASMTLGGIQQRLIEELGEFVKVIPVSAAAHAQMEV
The assay is described as follows: co-purification on Strep-Tactin column from SB33Y extract, immunoblot. On the technique in general: In western blotting, separated proteins are transferred to a membrane and probed.

B1: TS-NifB^USF (SU9-Twin-Strep-NifBMi purified from yeast strain SB33Y, co-expressed with NifU, NifS and FdxN-HA) (enzyme)
chain: not shown
notes: Same polypeptide as m1, purified from SB33Y; As isolated it carries about 6.1 Fe per monomer as [4Fe-4S] clusters and is active; The range 68-405 was derived from the printed N-terminus SSSAW; also called SU9-TS-NifBMi
Turning to B1, the binding result is recorded as “no binding”.

The values are drawn from patent US20200080117A1 (UNIVERSIDAD POLIT CNICA DE MADRID, published 2020).
